Tested on: MS2 coat protein
Test: apparent KD of MS2 coat protein; designed switch direction (-1 OFF switch, 1 ON switch): -1; higher = weaker reporter binding
How it was run: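 On Illumina chips, designed RNA switches with common flanks were made by stalled E. coli RNA polymerase. Titrations with SNAP-549-labelled MS2 coat protein, doubling from 0.7 or 1.5 nM to 3 µM, were done with no input, with 200 uM small-molecule ligand, or with an oligonucleotide input. Apparent KD is the median per design over clusters, from curve fits of normalised cluster fluorescence.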

[1] = input ligand: microRNA oligo, concentration not stated
[2] = Eterna round: R95, input ligand: FMN 200 uM
[3] = Eterna round: R95, input ligand: microRNA oligo, concentration not stated
[4] = Eterna round: R95, input ligand: none

CCUCCGUAUUAGGAUAUCGUCCCGGAAACGGGACGAGAAGGAAUGACAUGAGGAUCACCCAUGUUAACGUGAUG [Mod of Brourd 20 - Jieux - Exclusion 6] (Eterna round: R97, puzzle: Exclusion 6)
apparent KD of MS2 coat protein (input ligand: FMN 200 uM): 48.9 nM
apparent KD of MS2 coat protein (input ligand: none): 20.7 nM

ACCAUUACCACACCCUCUAUACAUGAGGAUCACCCAUGUUCUGAGGAUAUCAUCGCUCGCCGCGUUGAGAAGGCAGAGCAUUAA [Tiisri] (Eterna round: R96, puzzle: Exclusion NG 3)
apparent KD of MS2 coat protein (input ligand: FMN 200 uM): 50.8 nM
apparent KD of MS2 coat protein [1]: 9.21 nM
apparent KD of MS2 coat protein (input ligand: none): 15.1 nM

AAAAGGCGAGGAUAUACAGACCUCGGAAAAUCAAAGCAGAGACAUGAGGAUCACCCAUGUAGAAGGCGCAACAA [Geerbiorer] (Eterna round: R97, puzzle: Exclusion 2)
apparent KD of MS2 coat protein (input ligand: FMN 200 uM): 20.8 nM
apparent KD of MS2 coat protein (input ligand: none): 15.9 nM

AAGAAACAUGAGGAUCACCCAUGUGAGGAUAUGUAAAAUAAAAUAAAAUAAAGAAUAAACAGAAGGCACAAAGG [Mat - Mod of Hog D24] (puzzle: Exclusion 1)
apparent KD of MS2 coat protein [2]: 77.9 nM
apparent KD of MS2 coat protein [3]: 64.5 nM
apparent KD of MS2 coat protein [4]: 49.7 nM

AGUUGGCGAGGAUAUACAUGAGGAUCACCCAUGUGAGAGAUACUAGUGAGGUCGAUUAGGAGAAGGCGCUGACA [Mat X3R4 m20] (Eterna round: R97, puzzle: Exclusion 3)
apparent KD of MS2 coat protein (input ligand: FMN 200 uM): 63.1 nM
apparent KD of MS2 coat protein (input ligand: none): 48 nM

AAGUACUACAAGCUUCGGGACAUGAGGAUCACCCAUGUUCGUCUUAUUGAUCUAGGUACGCUGACGUACCUAGAUCA [Mat - Sensor v3 - turn-off var 1 - JL Mod - D12] (puzzle: Sensor v3, turn-off variant 1)
apparent KD of MS2 coat protein [2]: 14.9 nM
apparent KD of MS2 coat protein [3]: 59.4 nM
apparent KD of MS2 coat protein [4]: 14.7 nM

GUCAGACGAGGAUAUAGAUUUAGAUACAUGAGGAUCACCCAUGUAUACAUGUAUUUAGAUUUAGAAGGCGUCUGAC [E5/14-A4] (Eterna round: R97, puzzle: Exclusion 5)
apparent KD of MS2 coat protein (input ligand: FMN 200 uM): 492 nM
apparent KD of MS2 coat protein (input ligand: none): 1360 nM

GAUUGACAUGAGGAUCACCCAUGUGAGGAUAUCGGCUGGACCGUGUUGGCUUCCGUCUCGAGAAGGCGCAUAGG [Exclusion 1 V43] (Eterna round: R96, puzzle: Exclusion 1)
apparent KD of MS2 coat protein (input ligand: FMN 200 uM): 43.5 nM
apparent KD of MS2 coat protein [1]: 23.9 nM
apparent KD of MS2 coat protein (input ligand: none): 26.8 nM

AAAAAACAUGAGGAUCACCCAUGUGAGGAUAUGCUAAAAAAAUCCGCAUGAAAAAAUAGCAGAAGGCACAUAAA [PK2] (Eterna round: R96, puzzle: Exclusion 1)
apparent KD of MS2 coat protein (input ligand: FMN 200 uM): 93.5 nM
apparent KD of MS2 coat protein [1]: 27.2 nM
apparent KD of MS2 coat protein (input ligand: none): 36.2 nM

GGAGAGGUAGGAUAUCCACUUUAGAACAUGAGGAUCACCCAUGUAGAACCACAUGAAAUGGGAGAAGGACCAGGGA [AK-MS2ROC-r4-exclusion5-3] (Eterna round: R97, puzzle: Exclusion 5)
apparent KD of MS2 coat protein (input ligand: FMN 200 uM): 65.3 nM
apparent KD of MS2 coat protein (input ligand: none): 56.1 nM

ACACUGCGAGGAUAUACAUGAGGAUCACCCAUGUGUCGGCAGCCACGGUAGCACUAGUGUAGAAGGCGCAUUAG [EX3 #42] (Eterna round: R97, puzzle: Exclusion 3)
apparent KD of MS2 coat protein (input ligand: FMN 200 uM): 41.1 nM
apparent KD of MS2 coat protein (input ligand: none): 28.3 nM

UCUCGUUGGCAAGGAUAUCCUACAUUGUUCUGGCCCGGGCAUGCUACAUGAGGAUCACCCAUGUGGGAGAAGGUGCGCCACUGC [Design 25] (Eterna round: R96, puzzle: Exclusion NG 2)
apparent KD of MS2 coat protein (input ligand: FMN 200 uM): 95.5 nM
apparent KD of MS2 coat protein [1]: 67.6 nM
apparent KD of MS2 coat protein (input ligand: none): 108 nM

UCAAGUAUGUAGGAUAUCGAUGUCCUUGGACAUCGAGAAGGACGUACAUGAGGAUCACCCAUGUAACUUGCAUG [Exclusion 6 - B - 10:e] (Eterna round: R96, puzzle: Exclusion 6)
apparent KD of MS2 coat protein [1]: 131 nM

AACAGUACAGGAUAUACAUGAGGAUCACCCAUGUGAGAUUUAAGUGGCGUACCACAAAGUAGAAGGGUACUGGA [JL Maslow Revisted mod 5] (Eterna round: R96, puzzle: Exclusion 3)
apparent KD of MS2 coat protein (input ligand: FMN 200 uM): 230 nM
apparent KD of MS2 coat protein [1]: 29.6 nM
apparent KD of MS2 coat protein (input ligand: none): 37.3 nM

CUAAUACAUCAGGAUAUGAUAGCUUAUAGCAUAUCAGAAGGGAUGACAUGAGGAUCACCCAUGUCAAAGGGUGA [eternacac ex6r4 sub18] (Eterna round: R97, puzzle: Exclusion 6)
apparent KD of MS2 coat protein (input ligand: FMN 200 uM): 130 nM
apparent KD of MS2 coat protein (input ligand: none): 590 nM

GGUGUGAGGCAGGAUAUGCAAUAUGUAAGUAAUGCAGAAGGGUCUACAUGAGGAUCACCCAUGUGUGCGGUAGA [Ex6 #3] (Eterna round: R97, puzzle: Exclusion 6)
apparent KD of MS2 coat protein (input ligand: FMN 200 uM): 251 nM
apparent KD of MS2 coat protein (input ligand: none): 140 nM

UCAAGUAUGUAGGAUAUCGAUGUCCUUGGACAUCGAGAAGGACGUACAUGAGGAUCACCCAUGUAACUUGCAUG [Exclusion 6 - B - 10:e] (puzzle: Exclusion 6)
apparent KD of MS2 coat protein [2]: 103 nM
apparent KD of MS2 coat protein [3]: 138 nM
apparent KD of MS2 coat protein [4]: 94.5 nM

CAACAGGGAGGAUAUACAUGAGGAUCACCCAUGUUCGAGCGUCCUUGAACUACCUCUGGUAGAAGGCCCACACG [Bibiorbi] (Eterna round: R97, puzzle: Exclusion 3)
apparent KD of MS2 coat protein (input ligand: FMN 200 uM): 147 nM
apparent KD of MS2 coat protein (input ligand: none): 56.9 nM

GCAGCAUUGUUUACUAACAGUUACAUGAGGAUCACCCAUGUUCAGGAUAUGGUCUGGAUUACAGGCCAGAAGGGAACAAGCUGC [Eli exng3 - 031] (Eterna round: R96, puzzle: Exclusion NG 3)
apparent KD of MS2 coat protein (input ligand: FMN 200 uM): 9.09 nM
apparent KD of MS2 coat protein [1]: 9.39 nM
apparent KD of MS2 coat protein (input ligand: none): 15 nM

GGGUGCAGGCUAAGAUCCUACAUGAGGAUCACCCAUGUGGUCCGGUGACGUGAGUCACCGGACUUAGCUCGUCUUGU [salish99_S_TOV1_R5_006] (Eterna round: R97, puzzle: Sensor, turn-off variant 1)
apparent KD of MS2 coat protein (input ligand: FMN 200 uM): 133 nM
apparent KD of MS2 coat protein (input ligand: none): 142 nM

CACGGCUUAGGAUAUACAUGAGGAUCACCCAUGUGGGAAAGCCAAGGCGUGGUAAAGUGUAGAAGGAAGAAGGA [Solaedra] (puzzle: Exclusion 3)
apparent KD of MS2 coat protein [3]: 12.5 nM

CUUAAUUGUCACAUGGGUGACAUGAGGAUCACCCAUGUCACAAGCUUUUUGCUCGUCUUAUAAUUAACCCAUGUGAC [Stov1/12-A3] (Eterna round: R97, puzzle: Sensor, turn-off variant 1)
apparent KD of MS2 coat protein (input ligand: FMN 200 uM): 13.7 nM
apparent KD of MS2 coat protein (input ligand: none): 13.3 nM

GAAAAUUGGGCAGGAUAUCUAAUGAAAGAAACCGGAGAAGGGCCGGUGGCAAUUGCAGACAUGAGGAUCACCCAUGUAGUUGCA [Eternabot solution 42] (Eterna round: R96, puzzle: Exclusion NG 1)
apparent KD of MS2 coat protein (input ligand: FMN 200 uM): 13.5 nM
apparent KD of MS2 coat protein [1]: 15.2 nM
apparent KD of MS2 coat protein (input ligand: none): 14.9 nM

UUUUAACAAGCGAGAUCCUACAUGAGGAUCACCCAUGUAGACCAUGGUUUCCAUGGUCUUUUUGCUCGUCUUGUGUG [jl TITIN mod 6] (Eterna round: R97, puzzle: Sensor, turn-off variant 1)
apparent KD of MS2 coat protein (input ligand: FMN 200 uM): 22.5 nM
apparent KD of MS2 coat protein (input ligand: none): 23.3 nM

UCAUGUCCAGAGGAUAUGUAGAUCGAGAGAUCAACAGAAGGCUGGACAUGAGGAUCACCCAUGUGCGCCUUCAA [jl-ex3-4.29 ViennaUCT mod] (Eterna round: R97, puzzle: Exclusion 6)
apparent KD of MS2 coat protein (input ligand: FMN 200 uM): 70.6 nM
apparent KD of MS2 coat protein (input ligand: none): 188 nM

CUUCACGGAGGAUAUGCGGGCUGCGACAUGAGGAUCACCCAUGUUUAUGGAGCUUGGCAUGCAGAAGGCCGGGAGC [Eternabot (L2) Solution 19] (Eterna round: R97, puzzle: Exclusion 5)
apparent KD of MS2 coat protein (input ligand: FMN 200 uM): 9.81 nM
apparent KD of MS2 coat protein (input ligand: none): 10.6 nM

GGGUGACAUGAGGAUCACCCAUGUCAGGAUAUGGGCCCGGGCCCGAAAGGGCCCGGGUUUAGAAGGGACUGCCC [-44.4, -43.4 kcal, 22%A (-3 GC series)] (Eterna round: R97, puzzle: Exclusion 1)
apparent KD of MS2 coat protein (input ligand: FMN 200 uM): 59.3 nM
apparent KD of MS2 coat protein (input ligand: none): 42.9 nM

GGCACACAUGAGGAUCACCCAUGUGAGGAUAUGUGGCGAUCGUCGAAAGACGAUAGCCACAGAAGGCACAGGCC [Eli x1 4.24] (Eterna round: R97, puzzle: Exclusion 1)
apparent KD of MS2 coat protein (input ligand: FMN 200 uM): 21.4 nM
apparent KD of MS2 coat protein (input ligand: none): 17.8 nM

AGGUGGAAGCAGGAUAUGCUAGAAGUGUAGAAUGCAGAAGGGCUAACAUGAGGAUCACCCAUGUAAGAGGUGUA [JR_E6_Sub051] (puzzle: Exclusion 6)
apparent KD of MS2 coat protein [2]: 383 nM
apparent KD of MS2 coat protein [3]: 200 nM
apparent KD of MS2 coat protein [4]: 236 nM

GAGCUAUGAGGAUAUGCAUAUAUACGGUUUCGUGUGGUACUACAUGAGGAUCACCCAUGUAGAAGGCGUGGCUG [JL-ex2-2.05 mat747 mod] (puzzle: Exclusion 2)
apparent KD of MS2 coat protein [3]: 14.2 nM

UUUGUUGUUGUGAGGAUAUCGUUGUUAUUUUGAAACGAGAAGGCACAUGAGGAUCACCCAUGUUUGUUGAUGGU [JR_BMOE4_Sub060] (puzzle: Brourd's mod of Exclusion 4)
apparent KD of MS2 coat protein [3]: 41.5 nM

AGCUAGUGAGGAUAUACAAGAAUAUAAACGAACAUAAAGGGACAUGAGGAUCACCCAUGUAGAAGGCACUAGCA [Diamond 73] (Eterna round: R96, puzzle: Exclusion 2)
apparent KD of MS2 coat protein [1]: 29.3 nM

GAUCCUUAAGUCAGGAUAUCAAGCAAACUCAAAAUUGAGAAGGGACAUGAGGAUCACCCAUGUCACCGAAAUAA [Reteisus] (puzzle: Brourd's mod of Exclusion 4)
apparent KD of MS2 coat protein [2]: 10.1 nM
apparent KD of MS2 coat protein [3]: 8.98 nM
apparent KD of MS2 coat protein [4]: 10.6 nM

UCCUGUUAUGUUAGGAUAUCUGGUUCGACUCGAACAGAGAAGGAACAUGAGGAUCACCCAUGUCCCGGUGAUAA [Eternabot (L2) Solution 19] (Eterna round: R97, puzzle: Brourd's mod of Exclusion 4)
apparent KD of MS2 coat protein (input ligand: FMN 200 uM): 85.6 nM
apparent KD of MS2 coat protein (input ligand: none): 33.1 nM

— the supplement of paper PMC9170038
